From paper PMC5814829
Where two headings read alike, the source gives them in different places.

Key:
Experiment in all cases: fluorescence anisotropy
ScPif1p R594A/K595A = molecular target: T1, ScPif1p R594A/K595A (Saccharomyces cerevisiae, UniProt P07271 237-780, R594A;K595A)
T1 sequence: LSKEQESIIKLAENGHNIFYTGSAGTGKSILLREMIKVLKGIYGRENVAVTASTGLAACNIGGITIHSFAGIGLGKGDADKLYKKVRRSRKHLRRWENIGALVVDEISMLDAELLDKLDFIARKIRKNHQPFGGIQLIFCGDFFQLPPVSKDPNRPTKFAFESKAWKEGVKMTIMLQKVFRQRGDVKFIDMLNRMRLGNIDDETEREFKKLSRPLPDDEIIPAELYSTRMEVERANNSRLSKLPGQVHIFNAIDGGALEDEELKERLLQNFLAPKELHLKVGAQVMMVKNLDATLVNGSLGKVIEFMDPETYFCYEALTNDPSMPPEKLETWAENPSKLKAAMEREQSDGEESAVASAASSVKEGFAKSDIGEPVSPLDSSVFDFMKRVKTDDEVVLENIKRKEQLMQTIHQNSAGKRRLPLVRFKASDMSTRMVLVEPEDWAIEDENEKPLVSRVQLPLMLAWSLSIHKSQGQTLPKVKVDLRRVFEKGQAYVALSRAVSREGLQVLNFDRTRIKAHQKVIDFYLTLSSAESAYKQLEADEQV

ScPif1p K363A = molecular target: T2, ScPif1p K363A (Saccharomyces cerevisiae, UniProt P07271 237-780, K363A)
T2 sequence: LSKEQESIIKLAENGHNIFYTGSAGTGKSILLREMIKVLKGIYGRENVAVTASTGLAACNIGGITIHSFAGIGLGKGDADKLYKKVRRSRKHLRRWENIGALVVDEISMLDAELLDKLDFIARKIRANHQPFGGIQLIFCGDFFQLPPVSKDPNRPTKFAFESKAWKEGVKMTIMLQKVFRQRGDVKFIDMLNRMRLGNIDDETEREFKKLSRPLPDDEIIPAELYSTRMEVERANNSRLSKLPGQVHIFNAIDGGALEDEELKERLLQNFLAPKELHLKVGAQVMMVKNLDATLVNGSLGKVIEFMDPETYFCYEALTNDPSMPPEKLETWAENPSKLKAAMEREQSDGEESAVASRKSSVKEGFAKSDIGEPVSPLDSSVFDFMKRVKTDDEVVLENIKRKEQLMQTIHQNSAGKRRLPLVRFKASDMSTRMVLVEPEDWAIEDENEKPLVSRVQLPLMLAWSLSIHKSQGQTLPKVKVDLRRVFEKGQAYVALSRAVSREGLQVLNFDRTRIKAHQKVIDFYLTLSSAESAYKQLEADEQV

ScPif1p R326C = molecular target: T3, ScPif1p R326C (Saccharomyces cerevisiae, UniProt P07271 237-780, R326C)
T3 sequence: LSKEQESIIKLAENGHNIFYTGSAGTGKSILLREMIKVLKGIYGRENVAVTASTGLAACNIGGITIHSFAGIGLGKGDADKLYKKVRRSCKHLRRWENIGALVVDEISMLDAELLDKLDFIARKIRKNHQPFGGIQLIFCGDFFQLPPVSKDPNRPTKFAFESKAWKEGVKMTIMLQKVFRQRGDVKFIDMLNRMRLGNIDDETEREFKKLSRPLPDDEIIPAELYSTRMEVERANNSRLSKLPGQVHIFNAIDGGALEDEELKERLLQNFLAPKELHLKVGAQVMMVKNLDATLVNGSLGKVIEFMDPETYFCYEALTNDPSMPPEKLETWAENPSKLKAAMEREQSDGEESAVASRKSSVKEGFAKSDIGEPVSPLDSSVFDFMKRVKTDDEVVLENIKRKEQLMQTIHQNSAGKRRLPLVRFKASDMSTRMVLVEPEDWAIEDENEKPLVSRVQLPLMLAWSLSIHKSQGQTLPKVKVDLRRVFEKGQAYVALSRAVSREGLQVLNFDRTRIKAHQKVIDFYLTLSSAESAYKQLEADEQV

ScPif1p (237-780) [1] = molecular target: T4, ScPif1p (237-780) (Saccharomyces cerevisiae, UniProt P07271 237-780)
T4 sequence: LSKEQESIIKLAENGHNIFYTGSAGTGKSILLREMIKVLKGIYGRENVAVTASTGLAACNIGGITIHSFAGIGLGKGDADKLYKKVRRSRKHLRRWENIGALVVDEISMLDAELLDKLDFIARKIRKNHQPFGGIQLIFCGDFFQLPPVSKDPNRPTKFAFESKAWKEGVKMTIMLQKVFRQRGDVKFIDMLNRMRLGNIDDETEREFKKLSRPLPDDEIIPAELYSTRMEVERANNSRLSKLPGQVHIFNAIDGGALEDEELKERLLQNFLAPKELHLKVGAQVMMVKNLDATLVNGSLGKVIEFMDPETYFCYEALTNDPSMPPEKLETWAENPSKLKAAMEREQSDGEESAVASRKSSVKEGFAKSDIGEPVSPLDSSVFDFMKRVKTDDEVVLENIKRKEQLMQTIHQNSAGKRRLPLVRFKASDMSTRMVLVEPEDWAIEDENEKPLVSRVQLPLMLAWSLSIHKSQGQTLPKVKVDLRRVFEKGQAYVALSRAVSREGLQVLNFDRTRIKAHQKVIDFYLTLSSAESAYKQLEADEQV

ScPif1p (237-780) [2] = molecular target: T4, ScPif1p (237-780); remark: listed apart in the source
ScPif1p (237-780) [3] = molecular target: T4, ScPif1p (237-780); remark: listed apart in the source

B1: dsDNA16bp (dsDNA)
DNA 1: CTCTGCTCGACGGATT
DNA 2: AATCCGTCGAGCAGAG
B1 showed a Kd (ScPif1p R594A/K595A) of 78.9 ± 9.3 nM, a Kd (ScPif1p K363A) of 72.3 ± 8.3 nM and a Kd (ScPif1p R326C) of 78.3 ± 9.6 nM. For the same binder, the Kd (ScPif1p (237-780) [1]) was 81.3 ± 10.3 nM.

B2: GR12 (ssDNA)
DNA: GTGTGTGTGGTG
B2 was tested, and the Kd (ScPif1p R594A/K595A) was 10.5 ± 3.5 nM, the Kd (ScPif1p K363A) was 14.4 ± 1.3 nM and the Kd (ScPif1p R326C) was 12.4 ± 2.1 nM. For the same binder, the Kd (ScPif1p (237-780) [1]) was 11.2 ± 2.1 nM, the Kd (ScPif1p (237-780) [2]) was 6.1 nM and the Kd (ScPif1p (237-780) [3]) was 7.8 nM.

B3: F-G417 (structured_DNA)
DNA: AGGGTGGGTGGGTGGGT
Binder B3 has a Kd (ScPif1p R594A/K595A) of 72.9 ± 4.9 nM, a Kd (ScPif1p K363A) of 43.9 ± 2.2 nM and a Kd (ScPif1p R326C) of 105 ± 8.4 nM.
